Assays:
[1] = tested on: (wet) age-related macular degeneration; assay: Case of a patient with (wet) age-related macular degeneration: hydrogen aspiration and hydrogen water, Lucentis and laser therapy; format: in vivo, human
Protocol: A patient felt itchiness on the left eye in September 2013, took their glasses off, and covered their left eye.
Lucentis (R) was injected in the vitreous body of the patient and the patient received laser therapy after 1 week. After additional 1 month, Lucentis (R) was re-injected.
After 10 months, the injection was discontinued and only a test was continued. Thereafter, the patient visited the hospital once in three months and their pathological conditions were checked by a test.
Then, the patient received the second laser therapy, and Lucentis (R) injection approximately once a month.
The doctor recommended that the patient receive another laser therapy if the result of injection in February was bad.
After that, the patient received Lucentis (R) injection. One week after the injection, detailed fundus examination was conducted to check their pathological conditions.
Then, the patient daily drank 500 ml/morning and 500 ml/night of the water for 1 month.
When the patient received Lucentis (R) injection on Apr. 11, 2018, their pathological conditions were checked. […] However, after one week, the patient was re-examined.

[2] = compared with H2; cited from earlier work

Molecule: [HH] [hydrogen, molecular hydrogen]
- visual acuity of the eye with age-related macular degeneration ([1]; after aspirating hydrogen and drinking hydrogen water, improved from 0.1): 1.2
- choroidal neovascularization (detailed fundus examination) ([1]; gaseous hydrogen about 4% by volume aspirated about 2 hours x 3 (7-day interval), February 2018, then Lucentis injection, examined one week after the injection): degeneration

Molecule: [2H][2H] [D2, deuterium]
- superoxide-scavenging action [2]: stronger superoxide-scavenging action than H2

B1: ranibizumab (antibody, chains of the INN, looked up, V domains shown)
VH: EVQLVESGGGLVQPGGSLRLSCAASGYDFTHYGMNWVRQAPGKGLEWVGWINTYTGEPTYAADFKRRFTFSLDTSKSTAYLQMNSLRAEDTAVYYCAKYPYYYGTSHWYFDVWGQGTLVTVSS
VL: DIQLTQSPSSLSASVGDRVTITCSASQDISNYLNWYQQKPGKAPKVLIYFTSSLHSGVPSRFSGSGSGTDFTLTISSLQPEDFATYYCQQYSTVPWTFGQGTKVEIK
modifications: Fab
notes: an anti-VEGF drug, ranibizumab; Novartis Pharma K. K
- effects of laser therapy and Lucentis injection ([1]; during three years before initiation of hydrogen gas inhalation): no effects
- therapeutic effect ([1]; first course: intravitreal injection, laser therapy after 1 week, re-injection after additional 1 month): therapeutic effect appeared
- test result after injection ([1]; injection in January 2018): very bad
- treatment outcome ([1]; same treatment repeated two years later after worsening): not good

Reference: patent US11147834B2 (MiZ Company Limited, priority 2018, dated 2021)
